Experimental findings from US20130123340A1 are described below.

This test has as its target GFP-MG53 (mouse) (UniProt Q1XH17). The test is described as follows: cell-based or functional assay.
UniProt Q1XH17, sequence (Q1XH17 whole entry): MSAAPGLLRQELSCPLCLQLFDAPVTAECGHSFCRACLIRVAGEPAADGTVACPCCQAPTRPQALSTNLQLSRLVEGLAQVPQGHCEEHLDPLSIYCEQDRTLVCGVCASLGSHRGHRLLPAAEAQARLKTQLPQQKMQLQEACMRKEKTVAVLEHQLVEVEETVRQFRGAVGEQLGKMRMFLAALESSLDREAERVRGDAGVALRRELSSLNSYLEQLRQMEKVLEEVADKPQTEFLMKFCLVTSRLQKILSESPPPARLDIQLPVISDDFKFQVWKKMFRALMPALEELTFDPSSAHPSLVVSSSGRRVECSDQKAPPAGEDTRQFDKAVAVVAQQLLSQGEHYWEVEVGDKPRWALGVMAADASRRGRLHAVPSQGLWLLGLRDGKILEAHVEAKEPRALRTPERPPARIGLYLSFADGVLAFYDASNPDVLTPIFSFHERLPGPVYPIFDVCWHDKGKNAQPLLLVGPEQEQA

“caveolin-3 overexpressed from pcDNA-Cav-3” registered a reduction in the appearance of filapodia-like structures in C2C12 myoblasts transfected with caveolin-3 and GFP-MG53 (about 10:1) of 82%.
